Measurements: the supplement of paper PMC9112550, “Optimization of the antimicrobial peptide Bac7 by deep mutational scanning” (BMC Biology, 2022)

Tested on: Escherichia coli TOP10
Experiment: shrunken log2 fold change of peptide-encoding DNA abundance (4.5 h post-induction vs induction); higher = less antimicrobial activity (less host growth inhibition)
Settings: time post-induction: 4.5 h; library: site-saturation at positions 5, 18, 19, 20
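Further: peptides expressed intracellularly from a pBAD plasmid library in pooled LB shake-flask culture, induced with 0.3% L-arabinose, DNA abundance read by NGS, three biological replicates, DESeq2 with apeglm shrinkage.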

| Sequence | shrunken log2 fold change |
| --- | --- |
| RRIRSRPPRLPRPRPRPASYPRP | 0.102 |
| RRIRTRPPRLPRPRPRPAKKPRP | 0.00555 |
| RRIRIRPPRLPRPRPRPRGMPRP | 0.0423 |
| RRIRVRPPRLPRPRPRPQINPRP | -0.0064 |
| RRIRRRPPRLPRPRPRPFHGPRP | -0.17 |
| RRIRSRPPRLPRPRPRPTCDPRP | 0.109 |
| RRIRSRPPRLPRPRPRPTSEPRP | 0.292 |
| RRIRMRPPRLPRPRPRPLAWPRP | 0.219 |
| RRIRHRPPRLPRPRPRPIQLPRP | 0.128 |
| RRIRRRPPRLPRPRPRPTGLPRP | 0.0398 |
| RRIRVRPPRLPRPRPRPENRPRP | -0.221 |
| RRIRNRPPRLPRPRPRPWCPPRP | -0.752 |
| RRIRRRPPRLPRPRPRPRTNPRP | 0.482 |
| RRIRERPPRLPRPRPRPELIPRP | 0.0254 |
| RRIRFRPPRLPRPRPRPEVVPRP | 0.723 |
| RRIRNRPPRLPRPRPRPDWWPRP | 0.304 |
| RRIRMRPPRLPRPRPRPRASPRP | 1.08 |
| RRIRTRPPRLPRPRPRPCSNPRP | -0.0243 |
| RRIRHRPPRLPRPRPRPTPSPRP | 0.276 |
| RRIRARPPRLPRPRPRPYYFPRP | -0.701 |
| RRIRWRPPRLPRPRPRPCRRPRP | 0.0574 |
| RRIRCRPPRLPRPRPRPMNQPRP | -0.248 |
| RRIRNRPPRLPRPRPRPLKCPRP | 0.0144 |
| RRIRRRPPRLPRPRPRPCLFPRP | -0.0047 |
| RRIRNRPPRLPRPRPRPLKKPRP | -0.0418 |

| Sequence | shrunken log2 fold change |
| --- | --- |
| RRIRLRPPRLPRPRPRPTELPRP | -0.118 |
| RRIRNRPPRLPRPRPRPCLYPRP | 0.0767 |
| RRIRRRPPRLPRPRPRPAAYPRP | 0.585 |
| RRIRNRPPRLPRPRPRPWGGPRP | -0.113 |
| RRIRGRPPRLPRPRPRPGIFPRP | 0.254 |
| RRIRARPPRLPRPRPRPNIVPRP | 0.0466 |
| RRIRCRPPRLPRPRPRPSHVPRP | -0.387 |
| RRIRPRPPRLPRPRPRPHVMPRP | -0.0285 |
| RRIRFRPPRLPRPRPRPNGIPRP | -0.286 |
| RRIRGRPPRLPRPRPRPCVRPRP | 0.079 |
| RRIRNRPPRLPRPRPRPPDLPRP | 0.101 |
| RRIRDRPPRLPRPRPRPGYKPRP | -0.121 |
| RRIRDRPPRLPRPRPRPLMVPRP | -0.186 |
| RRIRCRPPRLPRPRPRPGAAPRP | 0.956 |
| RRIRSRPPRLPRPRPRPGNNPRP | -0.354 |
| RRIRIRPPRLPRPRPRPHVIPRP | -0.0939 |
| RRIRFRPPRLPRPRPRPGSRPRP | 0.191 |
| RRIRRRPPRLPRPRPRPTNLPRP | 0.068 |
| RRIRMRPPRLPRPRPRPGESPRP | 1.29 |
| RRIRVRPPRLPRPRPRPLTTPRP | -0.219 |
| RRIRERPPRLPRPRPRPIQLPRP | -0.446 |
| RRIRSRPPRLPRPRPRPVDSPRP | -0.0776 |
| RRIRRRPPRLPRPRPRPSHGPRP | 0.145 |
| RRIRLRPPRLPRPRPRPWPHPRP | 0.0514 |
| RRIRHRPPRLPRPRPRPWLHPRP | -0.00987 |

| Sequence | shrunken log2 fold change |
| --- | --- |
| RRIRDRPPRLPRPRPRPCMQPRP | -0.0524 |
| RRIRQRPPRLPRPRPRPFAYPRP | -0.0651 |
| RRIRWRPPRLPRPRPRPDATPRP | 2.57 |
| RRIRDRPPRLPRPRPRPMSDPRP | 1.13 |
| RRIRPRPPRLPRPRPRPMKSPRP | -0.0679 |
| RRIRTRPPRLPRPRPRPKVWPRP | 0.325 |
| RRIRLRPPRLPRPRPRPKDRPRP | 0.0663 |
| RRIRARPPRLPRPRPRPIDGPRP | 0.00408 |
| RRIRTRPPRLPRPRPRPWDWPRP | 0.00763 |
| RRIRLRPPRLPRPRPRPHQPPRP | 0.18 |
| RRIRWRPPRLPRPRPRPWPWPRP | -0.0737 |
| RRIRARPPRLPRPRPRPNCWPRP | 0.563 |
| RRIRQRPPRLPRPRPRPSFSPRP | -0.443 |
| RRIRHRPPRLPRPRPRPMPNPRP | -0.0341 |
| RRIRTRPPRLPRPRPRPLFWPRP | 0.134 |
| RRIRSRPPRLPRPRPRPQVYPRP | -0.276 |
| RRIRERPPRLPRPRPRPGWQPRP | 0.0683 |
| RRIRVRPPRLPRPRPRPGHFPRP | 0.136 |
| RRIRFRPPRLPRPRPRPAFEPRP | 0.226 |
| RRIRPRPPRLPRPRPRPAKYPRP | -0.317 |
| RRIRPRPPRLPRPRPRPPGAPRP | 0.806 |
| RRIRRRPPRLPRPRPRPGNYPRP | -0.0441 |
| RRIRFRPPRLPRPRPRPCMQPRP | -0.163 |
| RRIRARPPRLPRPRPRPQVDPRP | 0.04 |
| RRIRHRPPRLPRPRPRPGQVPRP | -0.00149 |

| Sequence | shrunken log2 fold change |
| --- | --- |
| RRIRFRPPRLPRPRPRPLQMPRP | 0.236 |
| RRIRTRPPRLPRPRPRPMTDPRP | 0.0245 |
| RRIRFRPPRLPRPRPRPSQNPRP | -0.22 |
| RRIRERPPRLPRPRPRPRLLPRP | -0.335 |
| RRIRLRPPRLPRPRPRPTMMPRP | -0.282 |
| RRIRWRPPRLPRPRPRPNMMPRP | 0.00802 |
| RRIRWRPPRLPRPRPRPFCLPRP | 0.0169 |
| RRIRPRPPRLPRPRPRPAEFPRP | -0.0142 |
| RRIRARPPRLPRPRPRPASSPRP | 0.16 |
| RRIRMRPPRLPRPRPRPVNPPRP | 0.00934 |
| RRIRWRPPRLPRPRPRPNPQPRP | -0.0303 |
| RRIRARPPRLPRPRPRPWPHPRP | -0.0357 |
| RRIRLRPPRLPRPRPRPNIHPRP | -0.621 |
| RRIRGRPPRLPRPRPRPGADPRP | 1.48 |
| RRIRLRPPRLPRPRPRPTGKPRP | -0.202 |
| RRIRRRPPRLPRPRPRPCHNPRP | -0.278 |
| RRIRARPPRLPRPRPRPPENPRP | 0.576 |
| RRIRARPPRLPRPRPRPFLKPRP | -0.349 |
| RRIRIRPPRLPRPRPRPHWFPRP | 0.022 |
| RRIRARPPRLPRPRPRPCLDPRP | 0.313 |
| RRIRKRPPRLPRPRPRPIYRPRP | -0.0881 |
| RRIRDRPPRLPRPRPRPKLDPRP | 0.0966 |
| RRIRRRPPRLPRPRPRPCQLPRP | -0.231 |
| RRIRDRPPRLPRPRPRPLLRPRP | 0.0308 |
| RRIRVRPPRLPRPRPRPHHCPRP | -0.74 |

| Sequence | shrunken log2 fold change |
| --- | --- |
| RRIRFRPPRLPRPRPRPCASPRP | -0.315 |
| RRIRVRPPRLPRPRPRPVATPRP | 0.212 |
| RRIRGRPPRLPRPRPRPGKQPRP | 0.0206 |
| RRIRPRPPRLPRPRPRPLGRPRP | 0.0841 |
| RRIRCRPPRLPRPRPRPMAKPRP | -0.0415 |
| RRIRFRPPRLPRPRPRPISRPRP | 0.0107 |
| RRIRRRPPRLPRPRPRPVIAPRP | 0.654 |
| RRIRMRPPRLPRPRPRPNAKPRP | 0.225 |
| RRIRHRPPRLPRPRPRPVRIPRP | 0.0159 |
| RRIRWRPPRLPRPRPRPHPSPRP | 0.452 |
| RRIRNRPPRLPRPRPRPNFFPRP | 0.0771 |
| RRIRMRPPRLPRPRPRPVKTPRP | 0.0113 |
| RRIRARPPRLPRPRPRPGLFPRP | 0.601 |
| RRIRWRPPRLPRPRPRPIVTPRP | 0.0938 |
| RRIRFRPPRLPRPRPRPCDVPRP | 0.0119 |
| RRIRFRPPRLPRPRPRPMFKPRP | -0.581 |
| RRIRVRPPRLPRPRPRPRCLPRP | -0.16 |
| RRIRQRPPRLPRPRPRPFELPRP | -0.113 |
| RRIRPRPPRLPRPRPRPRTWPRP | 0.537 |
| RRIRWRPPRLPRPRPRPDTGPRP | -0.373 |
| RRIRVRPPRLPRPRPRPILSPRP | -0.134 |
| RRIRGRPPRLPRPRPRPKDSPRP | 0.244 |
| RRIRRRPPRLPRPRPRPESAPRP | 0.493 |
| RRIRNRPPRLPRPRPRPTMYPRP | -0.486 |
| RRIRMRPPRLPRPRPRPNRAPRP | 0.239 |

| Sequence | shrunken log2 fold change |
| --- | --- |
| RRIRARPPRLPRPRPRPAPNPRP | 0.737 |
| RRIRYRPPRLPRPRPRPESSPRP | -0.0327 |
| RRIRLRPPRLPRPRPRPYAPPRP | -0.329 |
| RRIRERPPRLPRPRPRPVQNPRP | -0.0413 |
| RRIRVRPPRLPRPRPRPNDPPRP | -0.0659 |
| RRIRARPPRLPRPRPRPDGKPRP | 0.154 |
| RRIRQRPPRLPRPRPRPLGVPRP | 0.0233 |
| RRIRVRPPRLPRPRPRPPAAPRP | 0.397 |
| RRIRCRPPRLPRPRPRPGNNPRP | -0.47 |
| RRIRVRPPRLPRPRPRPVHFPRP | 0.13 |
| RRIRERPPRLPRPRPRPPKGPRP | -0.16 |
| RRIRKRPPRLPRPRPRPFQQPRP | 0.202 |
| RRIRMRPPRLPRPRPRPMKVPRP | 0.0398 |
| RRIRHRPPRLPRPRPRPDIGPRP | 0.0697 |
| RRIRFRPPRLPRPRPRPGRIPRP | 0.0413 |
| RRIRVRPPRLPRPRPRPVVPPRP | 0.132 |
| RRIRVRPPRLPRPRPRPEVCPRP | 0.0183 |
| RRIRRRPPRLPRPRPRPAFLPRP | -0.0132 |
| RRIRERPPRLPRPRPRPIWLPRP | -0.0129 |
| RRIRRRPPRLPRPRPRPAPWPRP | 0.626 |
| RRIRLRPPRLPRPRPRPSNPPRP | -0.86 |
| RRIRKRPPRLPRPRPRPRYMPRP | -0.334 |
| RRIRYRPPRLPRPRPRPEGIPRP | -0.0155 |
| RRIRHRPPRLPRPRPRPCDMPRP | -0.302 |
| RRIRGRPPRLPRPRPRPDWIPRP | 0.243 |
